# Biological target: prion protein PrP alpha-form, full-length mature, oxidized (Bos taurus, UniProt P10279 P10279:25-241)
# Assay: EMSA
# Settings: tags: 6-octarepeat allele, Met-initiated, E. coli, untagged (Ni-NTA, SP-Sepharose, Superdex 75)
# prion protein PrP alpha-form, full-length mature, oxidized, sequence (P10279 25-241, one chain of several): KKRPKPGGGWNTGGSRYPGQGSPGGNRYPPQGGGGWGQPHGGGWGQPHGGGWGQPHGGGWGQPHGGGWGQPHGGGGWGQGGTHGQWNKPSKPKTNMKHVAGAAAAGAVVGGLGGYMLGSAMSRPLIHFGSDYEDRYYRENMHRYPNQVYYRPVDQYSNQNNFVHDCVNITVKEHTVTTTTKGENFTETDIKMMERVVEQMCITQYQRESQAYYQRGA
row,Binder,binding result
1,"orphan clone 4 (random region) (ssRNA, 2'-F pyrimidines) RNA: GGGAGACAAGACUAGACGCUCAACUACGUUCCUUAUCCUCCCUUCAGGAACCUGUACACCACAUUGCUUCGACAUGAGACUCACAACAGUUCCCUUUAGUGAGGGUUAAUU",binds
2,"Group I clone 8 (random region) (ssRNA, 2'-F pyrimidines) RNA: GGGAGACAAGACUAGACGCUCAACUUUCGCUAGCGCACAUGCGCACCUCUAUGCGCAUAUACGAACGUUGGCGUUCGACAUGAGACUCACAACAGUUCCCUUUAGUGAGGGUUAAUU",binds
3,"orphan clone 3 (random region) (ssRNA, 2'-F pyrimidines) RNA: GGGAGACAAGACUAGACGCUCAACUACGAACUCAUGACACAAGGAUGCAAUCUCAUCCCGCCAGCCCUUCGACAUGAGACUCACAACAGUUCCCUUUAGUGAGGGUUAAUU",binds
4,"Group I clone 1 (random region) (ssRNA, 2'-F pyrimidines) RNA: GGGAGACAAGACUAGACGCUCAACUUUCCUAGCGCACAUGCGCACCUCUAUGCGUAAUACGAACGUUGACGUUCGACAUGAGACUCACAACAGUUCCCUUUAGUGAGGGUUAAUU",binds
5,"Group I clone 24 (random region) (ssRNA, 2'-F pyrimidines) RNA: GGGAGACAAGACUAGACGCUCAACUUUCCUAGUGCAUAUGUGCACCUCUAUGCGUAAUACGAACGUUGGCGUUCGACAUGAGACUCACAACAGUUCCCUUUAGUGAGGGUUAAUU",binds
6,"Group I clone 5 (random region) (ssRNA, 2'-F pyrimidines) RNA: GGGAGACAAGACUAGACGCUCAACUUUCCUAACGCACACGCGCACCUCUAUGCGUAAUACGAACGUUGGCGUUCGACAUGAGACUCACAACAGUUCCCUUUAGUGAGGGUUAAUU",binds
7,"Group I clone 22 (random region) (ssRNA, 2'-F pyrimidines) RNA: GGGAGACAAGACUAGACGCUCAACUUUCCUAAUGCACAUGCGCACCUCUAUGCGUAAUACGAACGUUGACGUUCGACAUGAGACUCACAACAGUUCCCUUUAGUGAGGGUUAAUU",binds
8,"Group I clone 14 (random region) (ssRNA, 2'-F pyrimidines) RNA: GGGAGACAAGACUAGACGCUCAACUUUCCUAGCGCAUAUGCGCACCUCUAUGCGUAAUACGAACGUUGGCGUUCGACAUGAGACUCACAACAGUUCCCUUUAGUGAGGGUUAAUU",binds
9,"Group I clone 17 (random region) (ssRNA, 2'-F pyrimidines) RNA: GGGAGACAAGACUAGACGCUCAACUUUGCUAGCGCACAUGCUCACCUCUAUGCGUAAUACGAACGUUGACGUUCGACAUGAGACUCACAACAGUUCCCUUUAGUGAGGGUUAAUU",binds
10,"Group I clone 15 (random region) (ssRNA, 2'-F pyrimidines) RNA: GGGAGACAAGACUAGACGCUCAACUUUCCUAGCGCAUAUGCGCACCUAUAUGCGUAAUACGAACGUUGGCGUUCGACAUGAGACUCACAACAGUUCCCUUUAGUGAGGGUUAAUU",binds
11,"Group I clone 2 (random region) (ssRNA, 2'-F pyrimidines) RNA: GGGAGACAAGACUAGACGCUCAACUUUCCUAACGCACAUGCGCACCUCUAUGCGUAAUACGAACGUUGGCGUUCGACAUGAGACUCACAACAGUUCCCUUUAGUGAGGGUUAAUU",binds
12,"Group I clone 10 (random region) (ssRNA, 2'-F pyrimidines) RNA: GGGAGACAAGACUAGACGCUCAACUUCCCUAGCGCACAUGCGUACCUCUAUGCGUAAUACGAACGUUGGCGUUCGACAUGAGACUCACAACAGUUCCCUUUAGUGAGGGUUAAUU",binds
13,"Group I clone 4 (random region) (ssRNA, 2'-F pyrimidines) RNA: GGGAGACAAGACUAGACGCUCAACUCUCCUAACGCACAUGCGCACCUCUAUGCGUAAUACGAACGUUGGCGUUCGACAUGAGACUCACAACAGUUCCCUUUAGUGAGGGUUAAUU",binds
14,"Group I clone 9 (random region) (ssRNA, 2'-F pyrimidines) RNA: GGGAGACAAGACUAGACGCUCAACUUUCCUAGCGCACACGCGCACCUCUAUGCGUAAUACGAACGUUGGCGUUCGACAUGAGACUCACAACAGUUCCCUUUAGUGAGGGUUAAUU",binds
15,"Group I clone 11 (random region) (ssRNA, 2'-F pyrimidines) RNA: GGGAGACAAGACUAGACGCUCAACUUUGCUAGCGCACAUGCGCACCUCUAUGCGUAGUACGAACGUUGGCGUUCGACAUGAGACUCACAACAGUUCCCUUUAGUGAGGGUUAAUU",binds
16,"Group I clone 19 (random region) (ssRNA, 2'-F pyrimidines) RNA: GGGAGACAAGACUAGACGCUCAACUUUCCUAGCGCACAUGCGCACCUCUACGCGUAAUACGAACGUUGACGUUCGACAUGAGACUCACAACAGUUCCCUUUAGUGAGGGUUAAUU",binds
17,"Group I clone 18 (random region) (ssRNA, 2'-F pyrimidines) RNA: GGGAGACAAGACUAGACGCUCAACUUUCCUAGCGCACAUGCGCACCUCUAUGCGUAAUACGAACGUAGACGUUCGACAUGAGACUCACAACAGUUCCCUUUAGUGAGGGUUAAUU",binds
18,"Group I clone 6 (random region) (ssRNA, 2'-F pyrimidines) RNA: GGGAGACAAGACUAGACGCUCAACUGUCCUAACGCACACGCGCACCUCUAUGCGUAAUACGAACGUUGGCGUUCGACAUGAGACUCACAACAGUUCCCUUUAGUGAGGGUUAAUU",binds
19,"Group I clone 12 (random region) (ssRNA, 2'-F pyrimidines) RNA: GGGAGACAAGACUAGACGCUCAACUUUCCUAGCGCACAUGCGCACCUCUAUGCGUAAUACGAACGUCGGCGUUCGACAUGAGACUCACAACAGUUCCCUUUAGUGAGGGUUAAUU",binds
20,"Group I clone 3 (random region) (ssRNA, 2'-F pyrimidines) RNA: GGGAGACAAGACUAGACGCUCAACGUUCCUAACGCACAUGCGCACCUCUAUGCGUAAUACGAACGUUGGCGUUCGACAUGAGACUCACAACAGUUCCCUUUAGUGAGGGUUAAUU",binds
21,"Group I clone 7 (random region) (ssRNA, 2'-F pyrimidines) RNA: GGGAGACAAGACUAGACGCUCAACUUUCCUAGCGCACAUGCGCACCUCUAUGCGUAAUACGAACGUUGGCGUUCGACAUGAGACUCACAACAGUUCCCUUUAGUGAGGGUUAAUU",binds
22,"Group I clone 26 (random region) (ssRNA, 2'-F pyrimidines) RNA: GGGAGACAAGACUAGACGCUCAACUUUCCUAACGCAUAUGUGCACCUCUAUGCGUAAUACGAACGUUGACGUUCGACAUGAGACUCACAACAGUUCCCUUUAGUGAGGGUUAAUU",binds
23,"Group I clone 16 (random region) (ssRNA, 2'-F pyrimidines) RNA: GGGAGACAAGACUAGACGCUCAACUUUCCUAGCGCAUAUGCGCACCUCUAUGCGUAAUACGAACGUCGGCGUUCGACAUGAGACUCACAACAGUUCCCUUUAGUGAGGGUUAAUU",binds
24,"Group I clone 27 (random region) (ssRNA, 2'-F pyrimidines) RNA: GGGAGACAAGACUAGACGCUCAACUUUCCUAACGCACAUGCGCACCUCUAUGCGUAAUACGAACAGUGAGAUUCGACAUGAGACUCACAACAGUUCCCUUUAGUGAGGGUUAAUU",binds
25,"Group I clone 13 (random region) (ssRNA, 2'-F pyrimidines) RNA: GGGAGACAAGACUAGACGCUCAACUCUCCUAGUGCACAUGCGCACCUCUAUGCGUAAUACGAACGUUGGCGUUCGACAUGAGACUCACAACAGUUCCCUUUAGUGAGGGUUAAUU",binds
26,"Group I clone 20 (random region) (ssRNA, 2'-F pyrimidines) RNA: GGGAGACAAGACUAGACGCUCAACUUUCCUAGCGCACAUGCGCACUUCUAUGCGUAAUACGAACGUUGGCGUUCGACAUGAGACUCACAACAGUUCCCUUUAGUGAGGGUUAAUU",binds
27,"Group I clone 23 (random region) (ssRNA, 2'-F pyrimidines) RNA: GGGAGACAAGACUAGACGCUCAACUUUCCUAACGCAUAUGCGCACCUCUAUGCGUAAUACGAACGUUGACGUUCGACAUGAGACUCACAACAGUUCCCUUUAGUGAGGGUUAAUU",binds
28,"orphan clone 6 (random region) (ssRNA, 2'-F pyrimidines) RNA: GGGAGACAAGACUAGACGCUCAAGCUGACCACCGCCAACGCAACCUCCAAUGACUUGGAUCACCUAGACGAUUUCGACAUGAGACUCACAACAGUUCCCUUUAGUGAGGGUUAAUU",binds
29,"orphan clone 5 (random region) (ssRNA, 2'-F pyrimidines) RNA: GGGAGACAAGACUAGACGCUCAAUAUCAACAUUAGGGCUCCUUGGGGACCAGCGUCUCCUUGCAGCCCCGAUUCGACAUGAGACUCACAACAGUUCCCUUUAGUGAGGGUUAAUU",binds
30,"orphan clone 2 (random region) (ssRNA, 2'-F pyrimidines) RNA: GGGAGACAAGACUAGACGCUCAACUCCUCUAGCACCAUAUCCAAGCUACAACUUCACAACGACUCGGCCUUCGACAUGAGACUCACAACAGUUCCCUUUAGUGAGGGUUAAUU",binds
